According to patent US20140303084:
Positions count from the first letter of the chain named.

Key:
(PEG)27-KLTCLASYCWLF = tested on: T1, (PEG)27-KLTCLASYCWLF
T1 sequence: KLTCLASYCWLF

[1] = tested on: T2, CNPRGD-Tyr(OEt)-RC-PEG16-Lys(PEG2-Biotin)-PEG16-rRAPGKLTCLASYCWLFWTGIA
T2 sequence: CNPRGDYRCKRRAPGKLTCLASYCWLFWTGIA

[2] = tested on: T3, GYRVPVGGLV RRAHG KLTCLASYCWLFWTGIA
T3 sequence: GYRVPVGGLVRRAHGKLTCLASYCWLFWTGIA

[3] = tested on: T4, Glu(Biotinyl-PEG)-RAPGKLTCLASYCWLFWTGIA
T4 sequence: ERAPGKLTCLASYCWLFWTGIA

KKLTCLASYCWLF = tested on: T5, KKLTCLASYCWLF
T5 sequence: KKLTCLASYCWLF

KLACLASYCWLF = tested on: T6, KLACLASYCWLF
T6 sequence: KLACLASYCWLF

KLT-Dab-LASY-Glu-WLF = tested on: T7, KLT-Dab-LASY-Glu-WLF
T7 sequence: KLTXLASYEWLF

KLT-Glu-LASY-Dap-WLF = tested on: T8, KLT-Glu-LASY-Dap-WLF
T8 sequence: KLTELASYXWLF

KLT-Glu-LASY-Lys-WLF = tested on: T9, KLT-Glu-LASY-Lys-WLF
T9 sequence: KLTELASYKWLF

KLTCKASYCWLF = tested on: T10, KLTCKASYCWLF
T10 sequence: KLTCKASYCWLF

KLTCL-Dpr-SYCWLF = tested on: T11, KLTCL-Dpr-SYCWLF
T11 sequence: KLTCLXSYCWLF

KLTCLAAYCWLF = tested on: T12, KLTCLAAYCWLF
T12 sequence: KLTCLAAYCWLF

KLTCLASYCQLF = tested on: T13, KLTCLASYCQLF
T13 sequence: KLTCLASYCQLF

KLTCLASYCW-Nle-F = tested on: T14, KLTCLASYCW-Nle-F
T14 sequence: KLTCLASYCWXF

KLTCLASYCWLA = tested on: T15, KLTCLASYCWLA
T15 sequence: KLTCLASYCWLA

KLTCLASYCWLFK = tested on: T16, KLTCLASYCWLFK
T16 sequence: KLTCLASYCWLFK

KLTCLASYC = tested on: T17, KLTCLASYC
T17 sequence: KLTCLASYC

[4] = tested on: T18, MQIRQAHQPR RSAPQ KLTCLASYCWLFWTGIA
T18 sequence: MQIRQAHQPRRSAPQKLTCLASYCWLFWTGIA

[5] = tested on: T19, NGALGFRSVV PRAAG KLTCLASYCWLFWTGIA
T19 sequence: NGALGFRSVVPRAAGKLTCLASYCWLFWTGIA

[6] = tested on: T20, PRIRTVGPGSRSASGKLTCAASYCWLFWTGIA
T20 sequence: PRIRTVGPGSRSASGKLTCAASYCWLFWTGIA

[7] = tested on: T21, PRIRTVGPGSRSASGKLTCLASYCWLFWSGIA
T21 sequence: T20 sequence with A20L, T29S

[8] = tested on: T22, PRIRTVSPGSRSASGKSTCLASYCWLFWTGIA
T22 sequence: T20 sequence with G7S, L17S, A20L

RAAPGKLQCLASYCWLFWTGIA = tested on: T23, RAAPGKLQCLASYCWLFWTGIA
T23 sequence: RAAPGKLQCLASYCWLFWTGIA

RGRSAKLRCLASYCWLFFGVIL = tested on: T24, RGRSAKLRCLASYCWLFFGVIL
T24 sequence: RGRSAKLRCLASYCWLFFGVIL

[9] = tested on: T25, RK(PEG2-Biotin)APGKLTCLASYCWLFWTGIA
T25 sequence: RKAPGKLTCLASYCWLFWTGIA

RLTCLASYCWLF = tested on: T26, RLTCLASYCWLF
T26 sequence: RLTCLASYCWLF

RRAPAKLQCLASYCWLFWTGIA = tested on: T27, RRAPAKLQCLASYCWLFWTGIA
T27 sequence: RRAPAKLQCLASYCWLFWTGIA

[10] = tested on: T28, RRAPGKCTALASYAWCFWTGIA-COOH
T28 sequence: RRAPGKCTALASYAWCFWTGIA

[11] = tested on: T29, RRAPGKLCALASYACLFWTGIA-COOH
T29 sequence: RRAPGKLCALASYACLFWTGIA

RRAPGKLQCLASYCWLFWTGAA = tested on: T30, RRAPGKLQCLASYCWLFWTGAA
T30 sequence: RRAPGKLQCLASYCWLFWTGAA

RRAPGKLQCLASYCWLFW = tested on: T31, RRAPGKLQCLASYCWLFW
T31 sequence: RRAPGKLQCLASYCWLFW

[12] = tested on: T32, RRAPGKLT-Asp-LASY-Dab-WLFWTGIA-CONH2
T32 sequence: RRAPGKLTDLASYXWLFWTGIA

[13] = tested on: T33, RRAPGKLT-Asp-LASY-Lys-WLFWTGIA-CONH2
T33 sequence: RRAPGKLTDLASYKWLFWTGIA

[14] = tested on: T34, RRAPGKLTCLASYAWCFWTGIA-COOH
T34 sequence: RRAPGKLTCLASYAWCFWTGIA

[15] = tested on: T35, RRAPGKLTCLASYCWL-MePhe-WTGIA
T35 sequence: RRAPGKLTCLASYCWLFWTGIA

[16] = tested on: T36, RRAPGKLTCLASYCWLF RTQIA TPESEYRQQA
T36 sequence: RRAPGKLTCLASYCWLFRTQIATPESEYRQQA

[17] = tested on: T37, RRAPGKLTCLASYCWLF WAGYP SLRGSLLVGV
T37 sequence: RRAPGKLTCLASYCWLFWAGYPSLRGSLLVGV

[18] = tested on: T38, RRAPGKLTCLASYCWLF WTGLS RYQWQAQEDV
T38 sequence: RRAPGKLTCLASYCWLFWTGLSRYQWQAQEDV

RRAPGKLTCLASYcWLFWTGIA [19] = tested on: T39, RRAPGKLTCLASYcWLFWTGIA
T39 sequence: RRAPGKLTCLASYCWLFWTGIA

RRAPGKLTcLASYCWLFWTGIA [20] = tested on: T40, RRAPGKLTcLASYCWLFWTGIA
T40 sequence: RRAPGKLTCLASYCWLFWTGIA

RRApGKLTCLASYCWLFWTGIA [21] = tested on: T41, RRApGKLTCLASYCWLFWTGIA
T41 sequence: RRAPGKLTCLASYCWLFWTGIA

[22] = tested on: T42, RRK(PEG2-Biotin)PGKLTCLASYCWLFWTGIA
T42 sequence: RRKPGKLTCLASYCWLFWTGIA

RRRKLTCLASYCWLFRRR = tested on: T43, RRRKLTCLASYCWLFRRR
T43 sequence: RRRKLTCLASYCWLFRRR

[23] = tested on: T44, SKQGRPISSDrRASGKLTCLASYCWLFWTGIA
T44 sequence: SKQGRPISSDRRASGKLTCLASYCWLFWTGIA

[24] = tested on: T45, SLISMTNPSG RRVPG KLTCLASYCWLFWTGIA
T45 sequence: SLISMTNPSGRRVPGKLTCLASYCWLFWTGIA

[25] = tested on: T46, SRIRTVGPGSRSASGKSTCLASYCWLFWTGIA
T46 sequence: T20 sequence with P1S, L17S, A20L

[26] = tested on: T47, TGLLQGRRDE RARPP KLTCLASYCWLFWTGIA
T47 sequence: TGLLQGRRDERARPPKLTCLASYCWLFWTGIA

[27] = tested on: T48, TLWPWGGQGG RNAPG KLTCLASYCWLFWTGIA
T48 sequence: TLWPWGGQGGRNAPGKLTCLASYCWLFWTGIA

kLTCLASYCWLF = tested on: T49, kLTCLASYCWLF
T49 sequence: KLTCLASYCWLF

rRAAGKATCLASYCWLFATGIA = tested on: T50, rRAAGKATCLASYCWLFATGIA
T50 sequence: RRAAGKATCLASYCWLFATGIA

[28] = tested on: T51, rRAPGKLTCLASYCWLFWTGIA-COOH
T51 sequence: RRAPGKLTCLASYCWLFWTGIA

human Factor IXa
Vmax, FXa generation assay ((PEG)27-KLTCLASYCWLF): > 2 | Vmax, FXa generation assay [1]: > 3 | Vmax, FXa generation assay [2]: > 2 | Vmax, FXa generation assay [3]: > 0.8 | Vmax, FXa generation assay (KKLTCLASYCWLF): > 3 | Vmax, FXa generation assay (KLACLASYCWLF): > 2 | Vmax, FXa generation assay; (++) means 1-2 (KLT-Dab-LASY-Glu-WLF): (++) | Vmax, FXa generation assay; (++) means 1-2 (KLT-Glu-LASY-Dap-WLF): (++) | Vmax, FXa generation assay; (++) means 1-2 (KLT-Glu-LASY-Lys-WLF): (++) | Vmax, FXa generation assay (KLTCKASYCWLF): > 3 | Vmax, FXa generation assay; (++) means 1-2 (KLTCL-Dpr-SYCWLF): (++) | Vmax, FXa generation assay; (++) means 1-2 (KLTCLAAYCWLF): (++) | Vmax, FXa generation assay (KLTCLASYCQLF): > 3 | Vmax, FXa generation assay (KLTCLASYCW-Nle-F): > 2 | Vmax, FXa generation assay (KLTCLASYCWLA): > 3 | Vmax, FXa generation assay (KLTCLASYCWLFK): > 3 | Vmax, FXa generation assay (KLTCLASYC): > 3 | Vmax, FXa generation assay [4]: > 2 | Vmax, FXa generation assay [5]: > 2 | Vmax, FXa generation assay [6]: > 2 | Vmax, FXa generation assay [7]: > 3 | Vmax, FXa generation assay [8]: > 3 | Vmax, FXa generation assay (RAAPGKLQCLASYCWLFWTGIA): > 2 | Vmax, FXa generation assay (RGRSAKLRCLASYCWLFFGVIL): > 2 | Vmax, FXa generation assay; (++) means 1-2 [9]: (++) | Vmax, FXa generation assay (RLTCLASYCWLF): > 2 | Vmax, FXa generation assay (RRAPAKLQCLASYCWLFWTGIA): > 2 | Vmax, FXa generation assay [10]: > 2 | Vmax, FXa generation assay [11]: > 0.3 | Vmax, FXa generation assay (RRAPGKLQCLASYCWLFWTGAA): > 3 | Vmax, FXa generation assay (RRAPGKLQCLASYCWLFW): > 2 | Vmax, FXa generation assay; (++) means 1-2 [12]: (++) | Vmax, FXa generation assay [13]: > 2 | Vmax, FXa generation assay [14]: > 2 | Vmax, FXa generation assay [15]: > 2 | Vmax, FXa generation assay [16]: > 3 | Vmax, FXa generation assay [17]: > 3 | Vmax, FXa generation assay [18]: > 2 | Vmax, FXa generation assay; (++) means 1-2 (RRAPGKLTCLASYcWLFWTGIA [19]): (++) | Vmax, FXa generation assay; (++) means 1-2 (RRAPGKLTcLASYCWLFWTGIA [20]): (++) | Vmax, FXa generation assay; (++) means 1-2 (RRApGKLTCLASYCWLFWTGIA [21]): (++) | Vmax, FXa generation assay; (++) means 1-2 [22]: (++) | Vmax, FXa generation assay; (++) means 1-2 (RRRKLTCLASYCWLFRRR): (++) | Vmax, FXa generation assay [23]: > 3 | Vmax, FXa generation assay [24]: > 2 | Vmax, FXa generation assay [25]: > 3 | Vmax, FXa generation assay [26]: > 3 | Vmax, FXa generation assay [27]: > 2 | Vmax, FXa generation assay (kLTCLASYCWLF): > 2 | Vmax, FXa generation assay; (++) means 1-2 (rRAAGKATCLASYCWLFATGIA): (++) | Vmax, FXa generation assay [28]: > 2
